In patent US20260263520A1 (OSLO UNIVERSITETSSYKEHUS HF, published 2026):
Residue numbers refer to the chain shown, from its start. In names and notes the source's numbering stands.

B1: parental Oslo-2 monoclonal antibody (antibody, V domains shown)
VH: EVQILETGGGLVKPGGSLRLSCATSGFNFNDYFMNWVRQAPGKGLEWIAQIRNKNYNYATYFAESLEGRFTISRDDSKSSVYLQVNSLRAEDTALYYCTELRYDYWGQGVMVTVSS
VL: DIVMTQSPFSLAVSEGEMVTINCKSSQSLLSSGNQKNNLAWYQQKPGQSPKLLIYYASTRQSGVPDRFIGSGSGTDFTLTISDVQAEDLADYYCLQHYSSPYTFGAGTKLELK
notes: also called Oslo-2 antibody; Oslo-2 parental antibody
B2: Oslo-2 mAb variant Mutant 4 (L:S31W/L:H107W) (antibody, V domains shown)
VH: B1 VH
VL: B1 VL with S31W, H97W, L112I
notes: Only variable domains are tied to the molecule; also called Variant 4; variant 4
B3: Oslo-2 mAb variant Mutant 5 (L:S31M) (antibody, V domains shown)
VH: B1 VH
VL: B1 VL with S31M, L112I
notes: Only variable domains are tied to the molecule; also called Variant 5; variant 5

Molecular target: antigen derived from p95HER2 (protein sequence …)
Test: indirect ELISA, antigen coated at 2.5 ug/mL, antibody in 3-fold dilutions from 3.0 ug/mL, absorbance at 450 nm
Method: Antibody binding was determined by indirect ELISA. A microtitre plate was coated with 50 μL antigen (protein sequence: […]) (SEQ ID NO: 36) at 2.5 μg/mL for 1 hour with shaking at 300 rpm then blocked with 200 μL 1% casein in PBS for 16 hours at 4° C. The plate was washed twice with PBS containing 0.05% Tween-20. In a separate offline microplate, antibody test samples were prepared in duplicate in a 3-fold serial dilution starting at 3.0 ug/mL. 50 μL of each test sample was transferred to the assay plate and incubated for 1 hour with shaking at 300 rpm. The plate was washed four times with PBS containing 0.05% Tween-20. 50 μL of horse radish peroxidase (HRP) labelled anti-human IgG antibody (catalogue number A8792, Sigma) at a dilution of 1:4000 was added to each well and incubated for 1 hour with shaking at 300 rpm. The plate was washed four times with PBS containing 0.05% Tween-20 and twice with water. 100 μL Tetramethylbenzidine (TMB) substrate (catalogue number 10076433, Fisher) was added and incubated for 10 minutes. The reaction was stopped by addition of 50 μL IM HCl and absorbance was measured at 450 nm using a Byonoy plate reader.

Binding result, binds:
B1
B2
B3
